Assay [1] addresses TChz, truncated recognition fragment (middle region, MoRF) of the histone chaperone Chz1 (UniProt P40019). In words: ITC; 200 uM TBZ_(Y139W) injected into 20 uM TChz, 298 K, NANO-ITC, 1:1 isothermal binding model. Background: In ITC the heat of successive injections is recorded.
In assay [2] the target is TBZ_(Y139W), tryptophan variant (pseudo-WT) of the H2A.Z-H2B linked fragment. Briefly: stopped-flow fluorescence; TChz 4, 6, 8, 12, 20 uM mixed with 2 uM TBZ_(Y139W), 0.01 M PBS, 25 C, excitation 290 nm, 320 nm cutoff filter; global numerical fit to a two-step induced-fit model.

The values below come from paper PMC5446181.

As for “TBZ_(Y139W), tryptophan variant (pseudo-WT) of the H2A.Z-H2B linked fragment (domain or fragment)”, in assay [1], the dissociation constant (Kd) turned out to be 330 nM, the dH is -8.14 kcal/mol and the stoichiometry N amounted to 0.97.

B1: TChz, truncated recognition fragment (middle region, MoRF) of the histone chaperone Chz1 (domain or fragment)
chain: DMDDAKLDALMGNEGEEEEDDLAEIDTSNIITSGRRTRGKVIDYKKTAEELDKKEPSTGSKD
As to B1, in assay [2], the k1+ (first step, association to the intermediate, induced-fit model) was determined as 6.78e+06 M⁻¹ s⁻¹; the k1− (first step, dissociation of the intermediate, induced-fit model) was 53.4 s⁻¹; the k2+ as the column head prints it a second time (taken as k2−, second step reverse, induced-fit model) was 9.88 s⁻¹.

By Kd is commonly meant the equilibrium constant for the complex coming apart. High values mean a looser complex, low ones a tighter complex. One may read the stoichiometry N as the number of molecules, sites or subunits per partner or assembly.
